Data: PMC5242376 (Science signaling, 2016)

Tests used:
[1] = target: T1, His-tagged MuSK ectodomain (UniProt Q61006 22-494); experiment: SPR
T1 sequence (looked up): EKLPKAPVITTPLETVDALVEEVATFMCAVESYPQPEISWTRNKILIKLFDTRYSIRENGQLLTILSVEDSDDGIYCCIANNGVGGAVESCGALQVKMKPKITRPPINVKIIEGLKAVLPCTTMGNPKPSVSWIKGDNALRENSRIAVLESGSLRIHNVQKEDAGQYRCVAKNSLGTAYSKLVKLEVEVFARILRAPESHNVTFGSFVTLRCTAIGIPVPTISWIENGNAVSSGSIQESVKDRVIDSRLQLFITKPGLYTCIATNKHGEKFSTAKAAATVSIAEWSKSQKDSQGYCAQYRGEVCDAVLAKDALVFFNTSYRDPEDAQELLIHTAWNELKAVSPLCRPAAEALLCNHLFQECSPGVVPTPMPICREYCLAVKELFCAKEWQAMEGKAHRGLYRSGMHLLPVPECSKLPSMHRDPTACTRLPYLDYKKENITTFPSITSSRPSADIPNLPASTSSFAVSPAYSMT

[2] = target: T2, full-length Fc-fusion MuSK ectodomain (UniProt Q61006 22-494); experiment: ELISA
T2 sequence (looked up): T1 sequence (looked up)

B1: recombinant human BMP2 (ligand, UniProt P12643 283-396, looked up)
chain: QAKHKQRKRLKSSCKRHPLYVDFSDVGWNDWIVAPPGYHAFYCHGECPFPLADHLNSTNHAIVQTLVNSVNSKIPKACCVPTELSAISMLYLDENEKVVLKNYQDMVVEGCGCR
[1]
  Kd: 5.6 nM

B2: recombinant human BMP7 (ligand, UniProt P18075 293-431, looked up)
chain: STGSKQRSQNRSKTPKNQEALRMANVAENSSSDQRQACKKHELYVSFRDLGWQDWIIAPEGYAAYYCEGECAFPLNSYMNATNHAIVQTLVHFINPETVPKPCCAPTQLNAISVLYFDDSSNVILKKYRNMVVRACGCH
[1]
  Kd: 11.8 nM

B3: recombinant human BMP4 (ligand, UniProt P12644 293-408, looked up)
chain: SPKHHSQRARKKNKNCRRHSLYVDFSDVGWNDWIVAPPGYQAFYCHGDCPFPLADHLNSTNHAIVQTLVNSVNSSIPKACCVPTELSAISMLYLDEYDKVVLKNYQEMVVEGCGCR
[2]
  EC50: ~30 nM
